T1: Recombinant Human SOST (human, UniProt Q9BQB4 24-213)
T1 sequence (looked up): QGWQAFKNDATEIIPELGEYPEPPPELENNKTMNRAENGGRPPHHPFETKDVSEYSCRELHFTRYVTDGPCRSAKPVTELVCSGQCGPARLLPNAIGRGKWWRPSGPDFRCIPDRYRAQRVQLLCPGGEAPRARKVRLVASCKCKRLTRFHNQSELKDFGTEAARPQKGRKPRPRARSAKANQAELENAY

B1: DVD1961 (bispecific antibody)
heavy: DIQMTQSPSSLSASVGDRVTITCRASQSISNNLNWYQQKPGKAPKLLIYYTSRFHSGVPSRFSGSGSGTDFTFTISSLQPEDIATYYCQQEHTLPYTFGQGTKLEIKRTVAAPQVQLKESGPGLVAPSQSLSITCTVSGFSLTDYGVNWVRQPPGKGLEWLGMIWGDGSTDYDSTLKSRLSISKDNSKSQIFLKMNSLQTDDTARYYCAREWHHGPVAYWGQGTLVTVSA
light: QVQLQESGPGLVKPSETLSLTCTVSGFSLIGYDLNWIRQPPGKGLEWIGIIWGDGTTDYNSAVKSRVTISKDTSKNQFSLKLSSVTAADTAVYYCARGGYWYATSYYFDYWGQGTLVTVSSASTKGPDIVMTQSHKFMSTTVGDRVSITCKASQAVSSAVAWYQQKPGQSPKLLIYWASTRHTGVPDRFTGSGSVTDFTLTIHNLQAEDLALYYCQQHYSTPFTFGSGTKLEIK
notes: VH/VL crossover DVD-Ig; also called DVD1961H + DVD1961L
B2: DVD1984 (bispecific antibody)
DVD-H: DIQMTQSPSSLSASVGDRVTITCRASQGIRIDLGWYQQKPGKAPKRLIYAASTLQSGVPSRFSGSGSGTEFIFTISSLQPEDFASYYCLQHKSYPLTFGGGTKVEIKRTVAAPQVQLQESGPGLVKPSETLSLTCTVSGFSLIGYDLNWIRQPPGKGLEWIGIIWGDGTTDYNSAVKSRVTISKDTSKNQFSLKLSSVTAADTAVYYCARGGYWYATSYYFDYWGQGTLVTVSS
DVD-L: QVQLVESGGGVVQPGRSLRLSCAASGFTFSSYDMHWVRQAPGKGLEWVAVIWSDGSIKYYADSVKGRFTISRDNSKNTLYLQMNSLRAEDTAVYYCAREVESAMGGFYYNGMDVWGQGTTVTVSSASTKGPDIQMTQSPSSLSASVGDRVTITCRASQSISNNLNWYQQKPGKAPKLLIYYTSRFHSGVPSRFSGSGSGTDFTFTISSLQPEDIATYYCQQEHTLPYTFGQGTKLEIK
notes: VH/VL crossover DVD-Ig; also called DVD1984H + DVD1984L; copies: 2 + 2
B3: AB020 (antibody, V domains shown)
VH: QVQLQESGPGLVKPSETLSLTCTVSGFSLIGYDLNWIRQPPGKGLEWIGIIWGDGTTDYNSAVKSRVTISKDTSKNQFSLKLSSVTAADTAVYYCARGGYWYATSYYFDYWGQGTLVTVSS
VL: DIQMTQSPSSLSASVGDRVTITCRASQSISNNLNWYQQKPGKAPKLLIYYTSRFHSGVPSRFSGSGSGTDFTFTISSLQPEDIATYYCQQEHTLPYTFGQGTKLEIKR
notes: Parent antibody; also called NGF parent antibody
B4: DVD1960 (bispecific antibody, not shown: a dimerising Fc or GST)
heavy: DIVMTQSHKFMSTTVGDRVSITCKASQAVSSAVAWYQQKPGQSPKLLIYWASTRHTGVPDRFTGSGSVTDFTLTIHNLQAEDLALYYCQQHYSTPFTFGSGTKLEIKRTVAAPQVQLQESGPGLVKPSETLSLTCTVSGFSLIGYDLNWIRQPPGKGLEWIGIIWGDGTTDYNSAVKSRVTISKDTSKNQFSLKLSSVTAADTAVYYCARGGYWYATSYYFDYWGQGTLVTVSS
light: QVQLKESGPGLVAPSQSLSITCTVSGFSLTDYGVNWVRQPPGKGLEWLGMIWGDGSTDYDSTLKSRLSISKDNSKSQIFLKMNSLQTDDTARYYCAREWHHGPVAYWGQGTLVTVSAASTKGPDIQMTQSPSSLSASVGDRVTITCRASQSISNNLNWYQQKPGKAPKLLIYYTSRFHSGVPSRFSGSGSGTDFTFTISSLQPEDIATYYCQQEHTLPYTFGQGTKLEIKR
B5: DVD1991 (bispecific antibody)
DVD-H: DVQMIQSPSSLSASLGDIVTMTCQASQGTSINLNWFQQKPGKAPKLLIYGSSNLEDGVPSRFSGSRYGTDFTLTISSLEDEDLATYFCLQHSYLPYTFGGGTKLEIKRTVAAPEVQLVESGGGLIQPGGSLRLSCAASGFTVSRNYMSWVRQAPGKGLEWVSVIYSGDRTYYADSVKGRFTISRDNSKNTLYLQMNSLRAEDTAVYYCARGEGGFDYWGQGTLVTVSS
DVD-L: EVQLQQSGPELVTPGASVKISCKASGYTFTDHYMSWVKQSHGKSLEWIGDINPYSGETTYNQKFKGTATLTVDKSSSIAYMEIRGLTSEDSAVYYCARDDYDASPFAYWGQGTLVTVSAASTKGPEIVMTQSPATLSVSPGERATLSCRASQSVSSNLAWYQQKPGQAPRLLIHGASIRATGLPARFSGSGSGTEFTLTISSLQSEDFAVYYCQQYNYWWTFGQGTKVEIK
notes: VH/VL crossover DVD-Ig; also called DVD1991H + DVD1991L; copies: 2 + 2

Tests used:
Recombinant Human β-NGF [1] = molecular target: T2, Recombinant Human β-NGF (human, UniProt P01138 122-239, limits assumed); assay: cell-based or functional assay
[2] = molecular target: T3, Recombinant Human TNF-α/TNFSF1A (human, UniProt P01375 77-233); assay: SPR (Biacore)
T3 construct: Bought reagent for Biacore; also called huTNFα; HuTNFα
Procedure: (§1) The BIACORE assay (Biacore, Inc, Piscataway, N.J.) determined the affinity of antibodies or DVD-Ig proteins with kinetic measurements of on-rate and off-rate constants. Binding of antibodies or DVD-Ig proteins to a target antigen (for example, a purified recombinant target antigen) was determined by surface plasmon resonance-based measurements with a Biacore® 1000 or 3000 instrument (Biacore® AB, Uppsala, Sweden) using running HBS-EP (10 mM HEPES [pH 7.4], 150 mM NaCl, 3 mM EDTA, and 0.005% surfactant P20) at 25° C. All chemicals were obtained from Biacore® AB (Uppsala, Sweden) or otherwise from a different source as described in the text. For example, approximately 5000 RU of goat anti-mouse IgG, (Fcγ), fragment specific polyclonal antibody (Pierce Biotechnology Inc, Rockford, Ill.) diluted in 10 mM sodium acetate (pH 4.5) was directly immobilized across a CM5 research grade biosensor chip using a standard amine coupling kit according to manufacturer's instructions and procedures at 25 μg/ml. Unreacted moieties on the biosensor surface were blocked with ethanolamine. Modified carboxymethyl dextran surface in flowcell 2 and 4 was used as a reaction surface. Unmodified carboxymethyl dextran without goat anti-mouse IgG in flow cell 1 and 3 was used as the reference surface. For kinetic analysis, rate equations derived from the 1:1 Langmuir binding model were fitted simultaneously to association and dissociation phases of all eight injections (using global fit analysis) with the use of Biaevaluation 4.0.1 software. Purified antibodies or DVD-Ig proteins were diluted in HEPES-buffered saline for capture across goat anti-mouse IgG specific reaction surfaces. Antibodies or DVD-Ig proteins to be captured as a ligand (25 μg/ml) were injected over reaction matrices at a flow rate of 5 μl/minute. The association and dissociation rate constants, kₒₙ (M⁻¹s⁻¹) and koff (s⁻¹) were determined under a continuous flow rate of 25 μl/minute. Rate constants were derived by making kinetic binding measurements at different antigen concentrations ranging from 10-200 nM. The equilibrium dissociation constant (M) of the reaction between antibodies or DVD-Ig proteins and the target antigen was then calculated from the kinetic rate constants by the following formula: KD=koff/kₒₙ. Binding was recorded as a function of time and kinetic rate constants were calculated.

Recombinant Human β-NGF [3] = molecular target: T2, Recombinant Human β-NGF; assay: SPR (Biacore)
Procedure: as §1

[4] = molecular target: T3, Recombinant Human TNF-α/TNFSF1A; assay: cell-based or functional assay
Recombinant Human β-NGF [5] = molecular target: T2, Recombinant Human β-NGF; assay: SPR (Biacore); antibody captured on anti-IgG Fc chip, antigen 10-200 nM in flow, 25 C, HBS-EP pH 7.4; koff 6.80E-06 is near the assay floor of 10^-6 s^-1
Procedure: The BIACORE assay (Biacore, Inc, Piscataway, N.J.) determined the affinity of antibodies or DVD-Ig proteins with kinetic measurements of on-rate and off-rate constants. Binding of antibodies or DVD-Ig proteins to a target antigen (for example, a purified recombinant target antigen) was determined by surface plasmon resonance-based measurements with a Biacore® 1000 or 3000 instrument (Biacore® AB, Uppsala, Sweden) using running HBS-EP (10 mM HEPES [pH 7.4], 150 mM NaCl, 3 mM EDTA, and 0.005% surfactant P20) at 25° C. All chemicals were obtained from Biacore® AB (Uppsala, Sweden) or otherwise from a different source as described in the text. […] The association and dissociation rate constants, kₒₙ (M⁻¹s⁻¹) and koff (s⁻¹) were determined under a continuous flow rate of 25 μl/minute. […] The equilibrium dissociation constant (M) of the reaction between antibodies or DVD-Ig proteins and the target antigen was then calculated from the kinetic rate constants by the following formula: KD=koff/kₒₙ. Binding was recorded as a function of time and kinetic rate constants were calculated.

Recombinant Human SOST [6] = molecular target: T1, Recombinant Human SOST; assay: cell-based or functional assay
Recombinant Human SOST [7] = molecular target: T1, Recombinant Human SOST; assay: SPR (Biacore)
Procedure: as §1

T2 sequence (P01138 122-239 limits assumed): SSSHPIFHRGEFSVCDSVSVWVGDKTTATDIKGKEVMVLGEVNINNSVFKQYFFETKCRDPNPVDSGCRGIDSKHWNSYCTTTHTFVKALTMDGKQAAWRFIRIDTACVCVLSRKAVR
T3 sequence (P01375 77-233 limits assumed): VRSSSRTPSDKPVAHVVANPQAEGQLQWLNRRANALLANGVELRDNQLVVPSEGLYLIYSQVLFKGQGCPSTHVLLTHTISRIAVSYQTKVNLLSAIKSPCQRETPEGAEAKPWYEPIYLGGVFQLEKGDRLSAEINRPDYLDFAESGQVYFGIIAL

| Binder | N-Terminal VD NGF Neutralization Assay IC50 (TF-1 cell proliferation) (Recombinant Human β-NGF [1]) | Kd [2] | koff [2] | kon [2] | Kd (Recombinant Human β-NGF [3]) | koff (Recombinant Human β-NGF [3]) | kon (Recombinant Human β-NGF [3]) | C-Terminal VD TNFα Neutralization Assay IC50 (L929 cells) [4] | C-Terminal VD NGF Neutralization Assay IC50 (TF-1 cell proliferation) (Recombinant Human β-NGF [1]) | N-Terminal VD TNFa Neutralization Assay IC50 (L929 cells) [4] | NGF Neutralization Assay IC50 (TF-1 cell proliferation) (Recombinant Human β-NGF [1]) | Kd (Recombinant Human β-NGF [5]) | N-Terminal VD SOST Neutralization Assay IC50 (Wnt-1/luciferase HEK clone #14) (Recombinant Human SOST [6]) | Kd (Recombinant Human SOST [7]) | koff (Recombinant Human SOST [7]) | kon (Recombinant Human SOST [7]) |
| --- | --- | --- | --- | --- | --- | --- | --- | --- | --- | --- | --- | --- | --- | --- | --- | --- |
| B1 | 0.132 nM | 0.58 nM | 9.9e-05 s⁻¹ | 170000 M⁻¹ s⁻¹ | < 0.00031 nM | < 1e-06 s⁻¹ | 3.2e+06 M⁻¹ s⁻¹ | 4.02 nM |  |  |  |  |  |  |  |  |
| B2 |  | 0.015 nM | 3.7e-05 s⁻¹ | 2.5e+06 M⁻¹ s⁻¹ | 0.096 nM | 4.3e-05 s⁻¹ | 450000 M⁻¹ s⁻¹ |  | 0.593 nM | 0.017 nM |  |  |  |  |  |  |
| B3 |  |  |  |  |  | 6.8e-06 s⁻¹ | 2.5e+06 M⁻¹ s⁻¹ |  |  |  | 0.008 nM | 0.0027 nM |  |  |  |  |
| B4 |  |  |  |  |  |  |  |  | 3.12 nM | 0.086 nM |  |  |  |  |  |  |
| B5 |  | 0.66 nM | 7.1e-05 s⁻¹ | 110000 M⁻¹ s⁻¹ |  |  |  | 0.401 nM |  |  |  |  | 36 nM | 0.017 nM | 0.00025 s⁻¹ | 1.5e+07 M⁻¹ s⁻¹ |

From patent US20130171059A1 (AbbVie / Abbott, published 2013)
